In patent publication US7732568B2, “Methods for preventing and treating Alzheimer's disease” (AFFIRIS Forschungs-und Entwicklungs GmbH, priority 2003, dated 2010):
Blank lines part the entries; values can stand above or below the binder they belong to.

Key:
[1] = molecular target: DAEFRH-specific monoclonal antibody (mAb) produced according to example 1; experiment: competition ELISA: soluble peptide vs plate-bound DAEFRH-C-BSA for biotinylated mAb, FIG. 2
[2] = molecular target: DAEFRH-specific monoclonal antibody (mAb) produced according to example 1; experiment: competition ELISA: soluble peptide vs plate-bound DAEFRH-C-BSA for biotinylated mAb, FIG. 5
[3] = molecular target: DAEFRH-specific monoclonal antibody (mAb) produced according to example 1; experiment: competition ELISA: soluble peptide vs plate-bound DAEFRH-C-BSA for biotinylated mAb, FIG. 3
[4] = molecular target: DAEFRH-specific monoclonal antibody (mAb) produced according to example 1; experiment: competition ELISA: soluble peptide vs plate-bound DAEFRH-C-BSA for biotinylated mAb, FIG. 4

B1: Peptide 3001 DKELRI (peptide)
peptide: DKELRIC
IC50 [1]: < 0.5 µg/mL

B2: Peptide 3002 DWELRI (peptide)
peptide: DWELRIC
IC50 [1]: > 0.5 µg/mL

B3: Peptide 1239 EYEFRG (peptide)
peptide: EYEFRGC
IC50 [2]: > 0.5 µg/mL

B7: Peptide 1236 DKELKI (peptide)
peptide: DKELKIC
IC50 [2]: > 5 µg/mL

B9: Peptide 1237 DRELKI (peptide)
peptide: DRELKIC
IC50 [2]: > 5 µg/mL

More lines, now with the values ahead:

IC50 [3]: < 5 µg/mL
B4: Peptide 3008 ELEFRG (peptide)
peptide: ELEFRGC

IC50 [3]: < 5 µg/mL
B5: Peptide 3009 SFEFRG (peptide)
peptide: SFEFRGC

IC50 [1]: < 0.5 µg/mL
B6: Peptide 3006 EAEFRG (peptide)
peptide: EAEFRGC

IC50 [4]: < 0.4 µg/mL
B8: Peptide 4002 SWEFRT (peptide)
peptide: SWEFRTC

IC50 [1]: > 0.5 µg/mL
B10: Peptide 3005 YAEFRG (peptide)
peptide: YAEFRGC
